Test results taken from patent publication US12241094B2, “Phenazine degrading agents and related compositions, methods and systems for interfering with viability of bacteria” (priority 2016, dated 2025).
“Also recorded” adds a separate entry of the source.

Experiments:
[1] = tested on: P. aeruginosa biofilm aggregates; assay: Biofilm aggregates embedded in agar blocks (anoxic fitness); assay type: cell-based; conditions: 22 hours growth then 5 hour treatment, 2 μg mL^−1; ~300 μm and deeper below agar surface
Method: Biofilm aggregate experiments. To test the effect of oxygen limitation in the presence of PodA30-162, biofilm aggregates were grown embedded in 0.5% noble agar blocks containing succinate minimal medium. Cultures were grown overnight to stationary phase in LB, washed once with succinate minimal medium, and resuspended to OD600 1.0. Samples were diluted 1:100 in agar at 44° C. and 175 μL was transferred to Nunc Lab-Tek chambered coverglass slides (8-well, 0.7 cm^2 area, supplier #155409). […] SYTO-9 from the LIVE/DEAD stain kit was used in place of DAPI to minimize background fluorescence. […] Biomass was quantified in ImageJ software (60) by identifying the Z-slice with the highest average fluorescent intensity (generally […] the agar surface), and setting the pixel threshold using the default ImageJ thresholding parameters at the Z-slice equivalent to the 100 μm depth. The number of particles in each slice of the Z-stack was determined using this threshold value and counting particles >10 μm^2 in area. […] Particle numbers for each slice were averaged between independent experiments and plotted against depth to quantify biofilm aggregates. […]
Oxygen diffusion modeling. […] Given these values, average cell number per mL was estimated by dividing the volume of total detected biofilm aggregates by the average volume of a P. aeruginosa cell (62) yielding a cell density estimate of 5×10^8. […]

[2] = tested on: P. aeruginosa biofilm; assay: Optical density of P. aeruginosa biofilm; assay type: cell-based; conditions: PodA vs inactive E154A; 1-OH-PHZ vs 1% DMSO
[3] = tested on: Pa PA14 biofilm transcriptome; assay: RNASeq transcriptome of biofilm cultures; assay type: cell-based, P. aeruginosa; conditions: 5 h
Method: Because 1-OH-PHZ induces iron starvation in A. fumigatus (Briard et al. (2015) Scientific Reports. 2015; 5), it was speculated that the abrogation of biofilm development in P. aeruginosa grown in the presence of either PodA or 1-OH-PHZox may be mediated by a response to Fe-limitation. To test this idea, changes to the transcriptome of Pa PA14 by RNASeq were assessed. After 5 h of incubation in the presence of PodA (1 μM), 1-OH-PHZ (200 μM) or PYO (200 μM), RNA was prepared from 1 ml of biofilm cultures (250 μl pooled from 4 static biofilm chambers) for analysis on an Illumina HiSeq 2500 sequencer at the Millard and Muriel Jacobs Genetics and Genomics Laboratory, as previously described (Babin et al. (2016) Proc Natl Acad Sci USA. 113(5):E597-E605; Kreamer et al. (2015) M Bio. 2015; 6(2):e02549. Epub 2015/02/26). This experiment was designed to identify genes that were likely to be specifically affected by PodA's transformation of PYO to 1-OH-PHZ under a condition that inhibited biofilm formation (FIG. 20A). As a reference for genes responsive to iron availability, these transcriptomes were compared to those previously found to respond to Fe(II) shock (Kreamer et al. (2015) M Bio. 2015; 6(2):e02549. Epub 2015/02/26).

B1: PodA30-162: truncated pyocyanin demethylase encoded by MFORT_14352 of Mycobacterium fortuitum lacking N-terminal helix, SEQ ID NO: 2 (protein, listed as Mycobacterium fortuitum)
chain: MDGRGGRSTTEPVTMTLDVKNDQVAKHDFGKPGMDVGDMDIFSDILSVDGKQVGYDGGACFFTNVTPDNPMTYCELTIHLDAGEIFARSLTPHTLAPFTMAITGGTGEYANSKGELTVSGVATPDEKYELKLTKAENLYFQ
detectable biofilm aggregates at anoxic depths [1]: sharper decline in detectable aggregates; also recorded: apparent biomass defect specifically at anoxic depths | optical density of biofilm [2]: significantly decreased | expression of small gene cluster incl. QapR regulon [3]: upregulated modestly | log(2) changes relative to untreated control, metal scavenging and starvation response genes (FIG. 21A) ([3]; PodA 1 μM, 1-OH-PHZ 200 μM, PYO 200 μM): ~0 log(2)
